According to patent US20260146091A1:

Legend:
[1] = biological target: mPDL-1 (mouse) (UniProt Q9EP73); assay: mPD-1/mPD-L1 binding inhibition
[2] = biological target: mPD-1 (mouse) (UniProt Q02242); assay: mPD-1/mPD-L1 binding inhibition
Chain of mPD-1 (mouse) (Q02242 25-169): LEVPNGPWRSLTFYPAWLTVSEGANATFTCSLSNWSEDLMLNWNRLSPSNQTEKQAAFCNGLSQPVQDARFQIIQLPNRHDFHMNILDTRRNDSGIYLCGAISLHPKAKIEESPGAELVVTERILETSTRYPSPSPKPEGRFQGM

Chain of mPDL-1 (mouse) (Q9EP73 19-239): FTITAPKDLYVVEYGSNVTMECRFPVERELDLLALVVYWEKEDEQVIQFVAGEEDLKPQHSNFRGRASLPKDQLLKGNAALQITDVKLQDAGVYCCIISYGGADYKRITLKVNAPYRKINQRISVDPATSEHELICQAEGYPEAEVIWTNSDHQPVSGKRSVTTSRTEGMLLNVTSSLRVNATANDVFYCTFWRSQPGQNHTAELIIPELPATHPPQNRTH

Row | IC50 [1] [nM] | IC50 [2] [nM] | Substance
1 | 1.09 |  | Clone 10F.9G2
2 |  | 31.1 | Clone RMPI-14
